The text below walks through data of patent publication US20210221849A1 (MIRABIOLOGICS, published 2021).

The target of assay [1] is T1, Met-PA (extracellular region of a human Met receptor with a PA tag at the C terminal) (human, UniProt P08581 25-932).
T1 construct: extracellular domain; Soluble receptor fragment expressed in Expi293F cells; also called second target antigen; not shown: PA tag
Description: sandwich ELISA type test: Met-PA on plate, Fab supernatant, detection with Nrp1ec-AP, A405. Background: ELISA stands for enzyme-linked immunosorbent assay.

For assay [2], the target named is T2, plexin B1-PA (extracellular region of human plexin B1 with a PA tag at the C terminal) (human, UniProt O43157 20-1490).
T2 construct: extracellular domain; Soluble receptor fragment expressed in Expi293F cells; Culture supernatant in the pulldown tests, purified for the sandwich tests; also called hPlexB1; plexin B1-BA; not shown: PA tag (Wako Pure Chemical Industries)
T2 sequence (looked up): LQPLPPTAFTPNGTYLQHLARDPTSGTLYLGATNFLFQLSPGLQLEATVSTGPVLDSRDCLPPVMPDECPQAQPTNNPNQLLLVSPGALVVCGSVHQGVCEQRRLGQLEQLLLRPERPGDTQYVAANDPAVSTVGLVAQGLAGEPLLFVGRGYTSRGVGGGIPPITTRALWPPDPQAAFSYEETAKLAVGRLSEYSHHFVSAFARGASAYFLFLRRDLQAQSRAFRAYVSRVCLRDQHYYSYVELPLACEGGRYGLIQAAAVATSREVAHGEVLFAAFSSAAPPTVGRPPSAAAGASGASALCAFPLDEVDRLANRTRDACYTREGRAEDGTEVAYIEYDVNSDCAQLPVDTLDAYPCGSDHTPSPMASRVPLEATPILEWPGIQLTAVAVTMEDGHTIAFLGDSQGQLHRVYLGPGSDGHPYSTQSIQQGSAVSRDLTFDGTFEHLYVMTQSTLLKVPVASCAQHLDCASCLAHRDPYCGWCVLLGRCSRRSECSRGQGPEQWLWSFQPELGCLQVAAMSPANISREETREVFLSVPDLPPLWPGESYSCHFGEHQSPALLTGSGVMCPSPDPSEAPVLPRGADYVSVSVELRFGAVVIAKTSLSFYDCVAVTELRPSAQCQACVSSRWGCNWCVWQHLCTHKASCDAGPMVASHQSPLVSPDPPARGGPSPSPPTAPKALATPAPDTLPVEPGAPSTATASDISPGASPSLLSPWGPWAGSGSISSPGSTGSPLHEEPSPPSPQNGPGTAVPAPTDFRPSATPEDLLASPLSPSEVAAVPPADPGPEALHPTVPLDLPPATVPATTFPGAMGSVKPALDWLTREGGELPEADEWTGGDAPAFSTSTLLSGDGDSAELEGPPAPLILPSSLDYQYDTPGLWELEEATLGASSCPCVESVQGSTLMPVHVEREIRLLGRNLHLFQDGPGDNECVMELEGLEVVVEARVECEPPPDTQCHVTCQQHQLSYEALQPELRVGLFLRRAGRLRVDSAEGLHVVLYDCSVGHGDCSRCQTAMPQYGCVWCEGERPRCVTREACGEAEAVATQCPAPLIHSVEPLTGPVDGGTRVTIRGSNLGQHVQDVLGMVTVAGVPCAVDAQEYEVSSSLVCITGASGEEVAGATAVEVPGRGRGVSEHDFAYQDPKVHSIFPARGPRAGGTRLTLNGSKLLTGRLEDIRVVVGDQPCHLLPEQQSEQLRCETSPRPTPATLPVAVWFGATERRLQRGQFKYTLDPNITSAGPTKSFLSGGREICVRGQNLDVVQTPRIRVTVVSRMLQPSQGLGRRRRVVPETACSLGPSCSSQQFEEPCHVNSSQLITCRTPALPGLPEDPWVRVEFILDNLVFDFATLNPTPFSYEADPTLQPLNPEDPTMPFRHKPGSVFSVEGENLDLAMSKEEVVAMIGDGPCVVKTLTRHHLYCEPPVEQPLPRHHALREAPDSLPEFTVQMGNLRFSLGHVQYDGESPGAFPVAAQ
Description: sandwich ELISA type test: plexin B1-PA on plate, Fab supernatant, detection with Nrp1ec-AP, A405.

T1 sequence (P08581 25-932): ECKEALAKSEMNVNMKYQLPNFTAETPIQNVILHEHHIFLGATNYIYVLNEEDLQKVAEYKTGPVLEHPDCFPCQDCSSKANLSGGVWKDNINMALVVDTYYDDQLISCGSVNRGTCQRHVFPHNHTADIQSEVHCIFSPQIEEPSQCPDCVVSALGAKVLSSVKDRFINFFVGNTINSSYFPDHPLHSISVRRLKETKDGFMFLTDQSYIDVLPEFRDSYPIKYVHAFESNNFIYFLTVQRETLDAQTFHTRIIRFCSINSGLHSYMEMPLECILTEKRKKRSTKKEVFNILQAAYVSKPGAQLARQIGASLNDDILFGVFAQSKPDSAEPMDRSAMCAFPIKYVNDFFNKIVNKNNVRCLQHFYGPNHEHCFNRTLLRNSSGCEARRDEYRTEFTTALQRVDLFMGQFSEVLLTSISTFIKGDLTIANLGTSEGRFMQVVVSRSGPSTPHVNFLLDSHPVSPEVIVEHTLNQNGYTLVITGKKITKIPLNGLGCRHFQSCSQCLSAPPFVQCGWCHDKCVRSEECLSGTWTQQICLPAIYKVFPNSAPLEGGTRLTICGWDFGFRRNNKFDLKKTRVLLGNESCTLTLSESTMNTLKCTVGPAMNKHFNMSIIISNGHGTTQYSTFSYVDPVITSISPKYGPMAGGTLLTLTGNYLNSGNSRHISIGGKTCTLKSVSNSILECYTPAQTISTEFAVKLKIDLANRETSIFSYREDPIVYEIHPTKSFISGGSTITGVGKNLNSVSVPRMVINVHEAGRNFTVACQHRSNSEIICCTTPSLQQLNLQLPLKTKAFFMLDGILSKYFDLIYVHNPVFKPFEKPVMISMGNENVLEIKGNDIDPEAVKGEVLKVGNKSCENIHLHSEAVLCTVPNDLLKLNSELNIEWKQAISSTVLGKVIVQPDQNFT

B1: N1_Fab having no peptide inserted therein (Fab, V domains shown)
VH: EVQLVESGGGLVQPGGSLRLSCAASGFSFSSEPISWVRQAPGKGLEWVSSITGKNGYTYYADSVKGRFTISADTSKNTAYLQMNSLRAEDTAVYYCARWGKKVYGMDVWGQGTLVTVSS
VL: DIQMTQSPSSLSASVGDRVTITCRASQSISSYLAWYQQKPGKAPKLLIYGASSRASGVPSRFSGSGSGTDFTLTISSLQPEDFATYYCQQYMSVPITFGQGTKVEIKR
notes: Unfused control Fab, used as culture supernatant; also called Fab of human IgG1 monoclonal antibody N1 (clone name YW64.3) against neuropilin 1
As for B1, the binding result in assay [1] and in assay [2] was “no binding” throughout.
